Test results as given in publication doi:10.1101/2021.01.11.425814 (bioRxiv, 2021).

Target: p53 transactivation domain (TAD) (13-61) (human, UniProt P04637 13-61)
Assay: ITC

Sequence of p53 transactivation domain (TAD) (13-61) (P04637 13-61): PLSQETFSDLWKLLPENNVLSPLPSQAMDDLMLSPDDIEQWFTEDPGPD

B1: FOXO4 forkhead domain (FHD) (95-195) (domain or fragment)
chain: GSRRNAWGNQSYAELISQAIESAPEKRLTLAQIYEWMVRTVPYFKDKGDSNSSAGWKNSIRHNLSLHSKFIKVHNEATGKSSWWMLNPEGGKSGKAPRRRA
dH: 12.3 kcal/mol | stoichiometry N: 1.04
